According to patent US20100129315A1:

Biological target: human MN protein, entire extra-cellular domain with a C-terminal histag, expressed in HKB-11 cells (human), Q16790
Assay: SPR (BIAcore 3000), IgG captured on anti-human IgG Fc, soluble MN as analyte, 1:1 Langmuir fit
Settings: remark: other sources report otherwise

B1: 3a4 full-length human IgG1 antibody (antibody)
chain 1: QVELVESGGGLVQPGGSLRLSCAASGFTFSDYSINWVRQAPGKGLEYVSNISYSGSSTYYADSVKGRFTISRDNSKNTLYLQMNSLRAEDTAVYYCARFKYSGGSDSWGQGTLVTVSS
chain 2: DIELTQPPSVSVAPGQTARISCSGDNLPDFYVHWYQQKPGQAPVLVISEDNKRPSGIPERFSGSNSGNTATLTISGTQAEDEADYYCSTYGYTYSYSVFGGGTKLTVL
With B1 the Kd was 1 nM.
